For data set [1] the following is noted: at the concentrations used; cited from earlier work.
Data set [2] is described as follows: Saturation curves for adsorption of active agent onto FDKP microparticles at pH 5.0. Format: physicochemical. To be noted: pH 5.0, constant 5 mg/mL FDKP microparticles (FIGS. 7A-7D). The method, then:
When the hydration water is displaced by adsorption of the active agent, its structure relaxes and produces a net decrease in the ultrasonic velocity through the sample. […] These studies were conducted at pH 5.0 where optimal adsorption of the active agent to microparticles is observed.

Data set [3] in a line: Resuspension of dried active agent-coated FDKP microparticles in acid solution or water (filtration, HPLC). To be noted: for Resuspended in Acidic solution, integrated HPLC peak area / Resuspended in water, integrated HPLC peak area: filtrate; for Resuspended in Acidic solution, integrated HPLC peak area / Redissolved after filtering away acidic solution, integrated HPLC peak area: final pH about 2.0, 215 nm; for Resuspended in water, integrated HPLC peak area / Redissolved after filtering away water, integrated HPLC peak area: final pH about 4.5, 215 nm; for Redissolved after filtering away acidic solution, integrated HPLC peak area / Redissolved after filtering away water, integrated HPLC peak area: retained particles dissolved; for Active Agent Standard solution, integrated HPLC peak area: 215 nm. Format: physicochemical. The method, then:
The solvent was filtered from these suspensions and the retained particles were dissolved and collected. The amount of active agent in all of these samples was quantitated by HPLC.
For each of the lots, the active agent was released from the particles in the acidic solution. Therefore, by protonating the surfaces of the microcrystals, the active agent desorbs from the crystal surfaces.

Data set [4] in a line: Adsorption onto FDKP microparticles at pH 5.0 with increasing salt (sodium chloride). The data set is classed as physicochemical. To be noted: pH 5.0, 5 mg/mL FDKP microparticles, sodium chloride (FIGS. 8A-8D). The method, then: Each sample contained a different quantity of salt (sodium chloride), as indicated under each bar in FIGS. 8A-8D (units are mM). […] After a brief incubation, unbound active agent was removed by filtration and the particles with adsorbed active agent were redissolved. The amount of active agent and particle recovered was quantitated by HPLC, and expressed as a mass ratio (% loading).
This can be interpreted as evidence that the salt competed with the active agent for interaction with the particle surface. As the salt concentration was increased, it competed strongly and effectively for surface binding sites, and essentially displaced the active agent from the particle surfaces. It is also speculated, that decrease binding of the active agent to microparticle may be attributable to Debye shielding.

A short description of data set [5]: pH dependence of adsorption onto FDKP microparticles with excess protein (retentate mass ratio by HPLC). The data set is classed as physicochemical. To be noted: for type of monolayer formed: 5 mg/mL FDKP, 2 mg/mL protein. As for the experimental part:
(An excess of protein, as referred to herein, is that amount over what is believed to be necessary to form a monolayer covering the accessible surface of the FDKP microparticle). After incubation, non-adsorbed protein was removed by filtration. The solids retained on the filter (retentate) were dissolved and the amounts of FDKP microparticles and protein retained on the filter were quantitated by HPLC. The protein/particle mass ratio was determined from this quantitation.
Insulin was adsorbed (loaded) onto FDKP microparticles in a pH-controlled process by mixing an aqueous suspension of FDKP microparticles with an aqueous solution of insulin. […] The solid particles with adsorbed insulin were recovered from the filter (retentate), dissolved and collected. The amounts of insulin and dissolved FDKP microparticles were quantitated by HPLC. The amount of adsorbed insulin was calculated as a fraction of the total mass of retentate.

A short description of data set [6]: Insulin binding to FDKP particles at different pH (unbound insulin in supernatant by HPLC). Format: physicochemical.
The nature of data set [7]: Ultrasonic glacial acetic acid titration of FDKP particles + insulin. The data set is classed as physicochemical. To be noted: 10 mg/mL FDKP, 1 mg/mL insulin; reduced interaction below about pH 2.9. As for the experimental part: This suspension was introduced into an ultrasonic spectrometer. While stirring gently, glacial acetic acid was gradually added in 5 μL aliquots to lower the pH. At each step in the titration ultrasonic data was collected.
The change in ultrasonic velocity was related (proportional) to the amount of surface area (hydration water) of the particles and/or macromolecules in the sample. […] This additional surface area was from free insulin in the suspension.

Where no end group is shown, it is not given here. A value given as a limit tells only on which side of the number the result lay.

As to GLP-1: glucagon-like peptide 1, the self association result in data set [1] is listed as “does not self associate”. Further, the “adsorption as active agent concentration is increased” value in data set [2] is recorded as “reached saturation”.

For “Insulin Aspart: a fast-acting type of insulin”, in data set [3], the “Resuspended in Acidic solution, integrated HPLC peak area” value worked out at 893 mAU * sec; the “Resuspended in water, integrated HPLC peak area” value worked out at 0 mAU * sec; the “Redissolved after filtering away acidic solution, integrated HPLC peak area” value came to 29 mAU * sec; the “Redissolved after filtering away water, integrated HPLC peak area” value is 982 mAU * sec. For the same substance, the “Active Agent Standard solution, integrated HPLC peak area” value in data set [3] is on record as 1099 mAU * sec.

Regarding PTH: parathyroid hormone, the “effect of increasing ionic strength on adsorption” value in data set [4] is on record as “reduced the extent of adsorption”. Besides, the “adsorption as active agent concentration is increased” value in data set [2] is recorded as “reached saturation”.

Consider “ghrelin: ghrelin, active agent adsorbed onto FDKP microparticles (GSSFLSPEHQRVQQRKESKKPPAKLQPR; ends and bridges not checked; UniProt Q9UBU3 24-51, looked up)”, for which, in data set [4], the “effect of increasing ionic strength on adsorption” value was “reduced the extent of adsorption”.

Consider “insulin: protein active agent adsorbed onto FDKP microparticles”, for which, in data set [3], the “Resuspended in Acidic solution, integrated HPLC peak area” value was 980 mAU * sec; the “Resuspended in water, integrated HPLC peak area” value is 4 mAU * sec; the “Redissolved after filtering away acidic solution, integrated HPLC peak area” value worked out at 49 mAU * sec; the “Redissolved after filtering away water, integrated HPLC peak area” value stood at 936 mAU * sec. Also, the “Active Agent Standard solution, integrated HPLC peak area” value in data set [3] came out at 1103 mAU * sec. Moreover, in data set [5] (5 mg/mL FDKP particles at varying pH, excess active agent (FIGS. 4A-D)), the “pH dependence of adsorption” value is “increased as a function of pH”. In data set [5] (pH 3.5 through pH 4.5), the “type of monolayer formed” value is “non-continuous monolayers”. The “type of monolayer formed” value in data set [5] (pH 5.0) is listed as “continuous monolayer”. The “pH at which substantially complete binding is achieved” value in data set [6] (insulin on FDKP particles) is on record as no less than 4.2. For the same substance, the “insulin adsorbed from solution onto the particles” value in data set [6] (pH 3.6) is recorded as “approximately 75%”. The “pH of association of protein with FDKP microparticles” value in data set [7] is on record as “greater than 2.9”.

Values taken from patent US11013692B2, “Method of drug formulation based on increasing the affinity of crystalline microparticle surfaces for active agents” (MannKind Corporation, priority 2005, dated 2021).
